In PMC2213029 (The Journal of Experimental Medicine, 2005):
Non-standard residues stand in square brackets, D forms with d. No end group written: not given here. pY = N[C@@H](Cc1ccc(OP(=O)(O)O)cc1)C(=O)O

Target: T1, CD45-D1D2 (597–1213) C828S (human, UniProt P08575 622-1238, C828S, selenomethionine (Sel-Met) substituted in the crystals with the phosphopeptides)
T1 sequence (looked up): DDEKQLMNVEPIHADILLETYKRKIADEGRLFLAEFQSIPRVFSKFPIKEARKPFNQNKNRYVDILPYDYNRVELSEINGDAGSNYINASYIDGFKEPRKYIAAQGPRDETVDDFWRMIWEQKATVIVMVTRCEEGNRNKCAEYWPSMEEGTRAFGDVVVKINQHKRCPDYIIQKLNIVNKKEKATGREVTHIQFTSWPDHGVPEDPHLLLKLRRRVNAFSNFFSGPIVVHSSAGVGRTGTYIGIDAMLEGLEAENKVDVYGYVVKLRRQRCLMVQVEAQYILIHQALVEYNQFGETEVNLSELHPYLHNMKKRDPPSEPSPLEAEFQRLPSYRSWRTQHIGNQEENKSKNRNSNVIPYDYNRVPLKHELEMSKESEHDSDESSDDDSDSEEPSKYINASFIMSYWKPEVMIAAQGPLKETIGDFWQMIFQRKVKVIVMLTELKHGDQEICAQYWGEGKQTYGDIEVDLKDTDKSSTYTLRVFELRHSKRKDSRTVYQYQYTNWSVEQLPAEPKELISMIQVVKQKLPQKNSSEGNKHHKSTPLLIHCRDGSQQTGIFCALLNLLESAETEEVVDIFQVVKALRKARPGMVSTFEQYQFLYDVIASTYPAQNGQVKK
Assay: crystal structure

NPT[pY]S [NPTpYS phosphopeptide derived from the polyoma middle T antigen]
binding result: binds

QQQQNQL[pY]NELNLGRREE[pY]DVLDKRRG [CD3ζ ITAM-1 phosphopeptide (membrane proximal ITAM of the CD3ζ chain, both tyrosines phosphorylated)]
binding result: binds
